According to publication PMC2654182 (Biochemistry, 2008):

B1: GST-CstF-50 (92-431) (domain or fragment, human, UniProt Q05048 92-431, looked up)
chain: MSPEASEYETCYVTSHKGPCRVATYSRDGQLIATGSADASIKILDTERMLAKSAMPIEVMMNETAQQNMENHPVIRTLYDHVDEVTCLAFHPTEQILASGSRDYTLKLFDYSKPSAKRAFKYIQEAEMLRSISFHPSGDFILVGTQHPTLRLYDINTFQCFVSCNPQDQHTDAICSVNYNSSANMYVTGSKDGCIKLWDGVSNRCITTFEKAHDGAEVCSAIFSKNSKYILSSGKDSVAKLWEISTGRTLVRYTGAGLSGRQVHRTQAVFNHTEDYVLLPDERTISLCCWDSRTAERRNLLSLGHNNIVRCIVHSPTNPGFMTCSDDFRARFWYRRSTTD

Assays:
BARD1 (423-777) = target: T1, BARD1 (423-777) (human, UniProt Q99728 423-777); experiment: pull-down
T1 sequence (looked up): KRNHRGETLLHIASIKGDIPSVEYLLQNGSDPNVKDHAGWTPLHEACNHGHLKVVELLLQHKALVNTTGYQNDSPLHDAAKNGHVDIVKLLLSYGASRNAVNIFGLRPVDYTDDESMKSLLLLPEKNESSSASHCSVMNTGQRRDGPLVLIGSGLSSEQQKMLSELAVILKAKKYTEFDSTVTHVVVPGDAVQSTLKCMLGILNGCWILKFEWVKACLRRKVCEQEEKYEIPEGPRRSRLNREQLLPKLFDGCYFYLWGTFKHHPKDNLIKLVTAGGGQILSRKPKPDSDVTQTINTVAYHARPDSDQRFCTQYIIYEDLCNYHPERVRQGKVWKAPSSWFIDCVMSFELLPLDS

GST-CstF-50 (92-431) = target: B1; experiment: pull-down

B1: binds (BARD1 (423-777)).

B2: BARD1 (554-777) (domain or fragment, human, UniProt Q99728 554-777, looked up)
chain: ASHCSVMNTGQRRDGPLVLIGSGLSSEQQKMLSELAVILKAKKYTEFDSTVTHVVVPGDAVQSTLKCMLGILNGCWILKFEWVKACLRRKVCEQEEKYEIPEGPRRSRLNREQLLPKLFDGCYFYLWGTFKHHPKDNLIKLVTAGGGQILSRKPKPDSDVTQTINTVAYHARPDSDQRFCTQYIIYEDLCNYHPERVRQGKVWKAPSSWFIDCVMSFELLPLDS
B2: binds (GST-CstF-50 (92-431)).
